Experiments:
Assay in all cases: radioligand binding
[1] = target: MD-2Flag.His6/FlagTLR4ecd D299G.T399I complex (human, UniProt Q9Y6Y9 19-160; O00206 24-631, D299G | T399I)
[2] = target: MD-2Flag.His6/FlagTLR4ecd (wild type) complex (human, UniProt Q9Y6Y9 19-160; O00206 24-631)
[3] = target: full-length D299G.T399I TLR4 expressed on HEK293T cells without MD-2 (human, UniProt O00206 24-839, D299G | T399I)
[4] = target: FlagTLR4ecd, wild type (extracellular domain of human TLR4, residues 24-631) (human, UniProt O00206 24-631)
Sequence of FlagTLR4ecd, wild type (extracellular domain of human TLR4, residues 24-631) (O00206 24-631): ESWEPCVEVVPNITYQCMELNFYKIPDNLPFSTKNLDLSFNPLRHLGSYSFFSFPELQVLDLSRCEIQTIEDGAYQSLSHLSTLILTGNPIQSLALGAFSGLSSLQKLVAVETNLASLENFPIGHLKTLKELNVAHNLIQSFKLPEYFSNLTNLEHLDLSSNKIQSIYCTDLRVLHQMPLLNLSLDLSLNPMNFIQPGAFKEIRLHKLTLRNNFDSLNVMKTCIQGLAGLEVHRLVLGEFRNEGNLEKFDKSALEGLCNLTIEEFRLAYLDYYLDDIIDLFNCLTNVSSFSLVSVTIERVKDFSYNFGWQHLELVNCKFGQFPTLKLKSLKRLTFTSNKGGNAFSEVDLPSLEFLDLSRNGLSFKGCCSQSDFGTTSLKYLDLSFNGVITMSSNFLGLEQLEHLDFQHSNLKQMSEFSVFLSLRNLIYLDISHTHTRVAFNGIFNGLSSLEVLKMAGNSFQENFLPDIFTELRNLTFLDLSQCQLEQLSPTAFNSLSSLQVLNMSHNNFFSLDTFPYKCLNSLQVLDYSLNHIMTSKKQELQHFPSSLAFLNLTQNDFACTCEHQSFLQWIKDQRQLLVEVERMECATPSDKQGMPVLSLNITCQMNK

Sequence of MD-2Flag.His6/FlagTLR4ecd (wild type) complex (O00206 24-631, one chain of several): as the sequence (O00206 24-631) above
Sequence of MD-2Flag.His6/FlagTLR4ecd D299G.T399I complex (O00206 24-631 D299G/T399I, one chain of several): as the sequence (O00206 24-631) above, with D276G, T376I counted along it
Sequence of full-length D299G.T399I TLR4 expressed on HEK293T cells without MD-2 (O00206 24-839 D299G/T399I): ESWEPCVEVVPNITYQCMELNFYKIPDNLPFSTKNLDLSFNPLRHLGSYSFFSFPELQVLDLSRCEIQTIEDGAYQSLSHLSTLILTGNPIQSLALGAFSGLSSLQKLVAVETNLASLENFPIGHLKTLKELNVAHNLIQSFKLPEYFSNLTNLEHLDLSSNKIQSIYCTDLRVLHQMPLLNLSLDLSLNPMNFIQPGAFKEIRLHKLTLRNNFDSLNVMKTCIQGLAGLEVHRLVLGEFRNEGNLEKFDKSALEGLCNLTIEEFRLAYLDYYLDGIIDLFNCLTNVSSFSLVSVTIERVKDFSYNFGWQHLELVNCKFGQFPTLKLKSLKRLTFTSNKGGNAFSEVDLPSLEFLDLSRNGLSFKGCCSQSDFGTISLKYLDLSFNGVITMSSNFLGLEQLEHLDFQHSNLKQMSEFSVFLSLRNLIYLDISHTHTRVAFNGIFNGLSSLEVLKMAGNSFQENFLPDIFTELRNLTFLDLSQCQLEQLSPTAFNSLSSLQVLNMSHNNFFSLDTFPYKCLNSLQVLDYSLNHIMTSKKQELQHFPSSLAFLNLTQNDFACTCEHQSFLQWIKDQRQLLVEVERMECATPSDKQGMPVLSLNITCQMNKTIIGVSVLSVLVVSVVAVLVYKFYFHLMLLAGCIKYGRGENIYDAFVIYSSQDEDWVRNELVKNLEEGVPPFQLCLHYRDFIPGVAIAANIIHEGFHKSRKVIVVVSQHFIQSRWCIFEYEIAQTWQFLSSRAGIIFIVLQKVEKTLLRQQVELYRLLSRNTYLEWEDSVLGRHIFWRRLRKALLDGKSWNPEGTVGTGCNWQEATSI

B1: monomeric [3H]LOS·sCD14 complex (endotoxin·CD14) (natural protein, UniProt P08571 20-345, looked up)
chain: TTPEPCELDDEDFRCVCNFSEPQPDWSEAFQCVSAVEVEIHAGGLNLEPFLKRVDADADPRQYADTVKALRVRRLTVGAAQVPAQLLVGALRVLAYSRLKELTLEDLKITGTMPPLPLEATGLALSSLRLRNVSWATGRSWLAELQQWLKPGLKVLSIAQAHSPAFSCEQVRAFPALTSLDLSDNPGLGERGLMAALCPHKFPAIQNLALRNTGMETPTGVCAALAAAGVQPHSLDLSHNSLRATVNPSAPRCMWSSALNSLNLSFAGLEQVPKGLPAKLRVLDLSCNRLNRAPQPDELPEVDNLTLDGNPFLVPGTALPHEGSMN
B1 gave a Kd [1] of 0.186 nM and a Kd [2] of 0.196 nM.

B2: monomeric [3H]LOS·MD-2His6 complex (endotoxin·MD-2) (natural protein)
chain: QKQYWVCNSSDASISYTYCDKMQYPISINVNPCIELKRSKGLLHIFYIPRRDLKQLYFNLYITVNTMNLPKRKEVICRGSDDDYSFCRALKGETVNTTISFSFKGIKFSKGKYKCVVEAISGSPEEMLFCLEFVILHQPNSN
In the case of B2, the “fold reduction of cell binding against wt TLR4” value [3] is reported as ≥ 10 fold and the Kd [4] is reported as 0.221 ± 0.043 nM.
